Reference: patent US20220177886, “[…] AGAINST CLOSTRIDIUM […], COMPOSITIONS COMPRISING […] AGAINST CLOSTRIDIUM […] AND METHODS OF USING THE SAME” (Biovector, Inc., published 2022)

How the values were obtained:
[1] = biological target: CotE (rCotE LS25, N281-F712) (Clostridium difficile); experiment: SPR; details: tags: His-tagged (Ni-NTA)
Procedure: (§1) For CotE D2, CotE H2 and CotEC chitinase, aptamers were spotted on a gold surface at a concentration of 5 μM in PBS at a volume of approximately 10 nL in triplicate. Negative aptamers of the same length as the positive aptamers were spotted in the same manner, also in triplicate. Protein was then injected over the chip at a volume of 200 μL, with a flow rate of 50 μL/min in a Horiba (OpenPlex) surface plasmon resonance imaging (SPRi) instrument. Resonance due to binding was obtained by subtracting total resonance on the negative sequences from total resonance on the positive sequences. Disassociation values were computed with the following equation: dx/dt˜−kd*x, wherein dx/dt is the derivative of resonance values as a function of time and x is the resonance value for any given time point. Association values were computed with the following equation: dx/dt˜ka*c*Rmax−(ka*c+kd)*x, where x is the resonance due to binding at specific time points, c is the concentration of injectant, and Rmax is the maximum resonance observed.
(§2) Surface plasmon resonance imaging (SPRi) analysis of binding was performed with the various aptamers immobilized on a surface while the protein was flowed over at various concentrations.

HIV-1 p24 capsid protein = HIV-1 p24 capsid protein (Human immunodeficiency virus 1, UniProt P04591 P04591:133-363); experiment: negative control protein; only aspecific fluorescence recovery, graphene oxide assay; details: tags: E. coli derived; RayBiotech 212-10004; label: 5'-FAM
Procedure: Once the quenched signal was stabilized, a fixed concentration of the target protein was added to the aptamer-GO mix (5 nM aptamer+0.5 ng/μL GO), and the recovery in quenched signal was recorded over time.
As negative control, a non-target protein at the same concentration (HIV cap protein P24) was added to the aptamer-GO mix.
Using 0.005% PEG in the buffer system, and 5 nM Fam-H2.1.2 with 0.5 ng/μL GO, the recovery of quenched signal was recorded after adding 50 nM of target protein (CotE) and 50 nM negative control protein (P24).

CdeM = CdeM (Clostridium difficile); experiment: pulldown; details: tags: His-tagged (Ni-NTA)
Procedure: (§3) The binding assay was performed by incubating fluorescently labeled aptamers (FAM) with the protein, and then spinning the tubes down in a microcentrifuge to remove unbound. The pellet was resuspended in selection buffer and spun down again. Bound aptamers were eluted by adding 6 M urea, and spinning again, retaining the supernatant. The aptamers were cleaned up with PCR cleanup columns and the fluorescence was read on a Tecan Sapphire II fluorometer. Excitation was at 497 nm, and emission was at 515 nm. The amount of fluorescence measured in the eluant was divided by the total amount of fluorescence of all fractions.
(§4) D1 CdeC: The original aptamer sequence was SEQ ID NO: 6, which binds to the CdeC protein from C. difficile. […] Two aptamers, D1.1 (SEQ ID NO: 38) and D1.2 (SEQ ID NO: 39), were designed to stabilize the structure observed in the analysis of the original sequence (FIG. 11). The CdeC protein self-aggregates in aqueous solutions making surface plasmon resonance analysis difficult. The protein forms large aggregates that are insoluble. The protein aggregates were combined as suspensions with the aptamers in solutions, allowed to incubate at room temperature for 15 min, and then spun down in a microcentrifuge to remove unbound aptamer. The complexes were washed with the appropriate selection buffer (50 mM Tris pH 7.6, 2.5 mM MgCl₂, 2.5 mM CaCl₂, 85 mM KOAc, 0.01% Tween 20, 0.01% BSA) once and the spin process was repeated. Finally, the bound aptamer was eluted from the protein structures with the addition of 6M urea. The protein aggregates were spun again, and this time the supernatant containing the eluted aptamers was retained. The aptamers were synthesized with a FAM label on the 5′ end for this analysis.
(§5) The CdeM protein is similar to the CdeC protein in that it forms aggregated balls when purified. An amount of protein equivalent to 1 E8 particles with 1 μM of each of the Em2, Em2.1 and Em2.2 aptamers in a total volume of 50 μL in the CdeM buffer was used. The mixture was allowed to incubate for 15 min at room temperature, then centrifuged. The supernatant was removed, and the pellet resuspended in CdeM buffer. This was centrifuged again and the wash process repeated once more.

CdeC = CdeC (Clostridium difficile); experiment: pulldown; details: tags: His-tagged (Ni-NTA)
Procedure: as §3, §4, §5

CotA-His6 [2] = biological target: T1, CotA-His6 (Clostridium difficile, UniProt Q186G8 SEQ:1-305); experiment: SPR; 7.82E-08; protein immobilized; details: tags: His6; optimized potential G-quartet
T1 sequence: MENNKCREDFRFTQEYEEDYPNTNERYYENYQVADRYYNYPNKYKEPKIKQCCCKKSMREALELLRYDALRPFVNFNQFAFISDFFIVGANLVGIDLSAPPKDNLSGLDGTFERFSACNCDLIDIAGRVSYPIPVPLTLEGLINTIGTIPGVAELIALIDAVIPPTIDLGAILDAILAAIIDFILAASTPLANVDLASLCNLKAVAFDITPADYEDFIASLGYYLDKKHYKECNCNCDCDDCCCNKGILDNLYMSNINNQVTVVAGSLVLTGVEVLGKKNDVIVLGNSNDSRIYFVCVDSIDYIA
Procedure: as §3, with “For CotA C1, the protein was immobilized on a hydrogel chip with EDC-mediated conjugation between primary amines on the protein (side chains on residues) and carboxylic acid groups on the surface of the chip. A protein of similar size was immobilized in the same manner as a negative control. […] For CdeC D1, the protein was received as aggregated, insoluble balls of protein. The binding” for “The binding”

CotA-His6 [3] = biological target: T1, CotA-His6; experiment: SPR; 5.21E-08; protein immobilized; details: tags: His6
Procedure: as §3, with “For CotA C1, the protein was immobilized on a hydrogel chip with EDC-mediated conjugation between primary amines on the protein (side chains on residues) and carboxylic acid groups on the surface of the chip. A protein of similar size was immobilized in the same manner as a negative control. […] For CdeC D1, the protein was received as aggregated, insoluble balls of protein. The binding” for “The binding”

CotA-His6 [4] = biological target: T1, CotA-His6; experiment: SPR; 1.84E-08; protein immobilized; details: tags: His6
Procedure: as §3, with “For CotA C1, the protein was immobilized on a hydrogel chip with EDC-mediated conjugation between primary amines on the protein (side chains on residues) and carboxylic acid groups on the surface of the chip. A protein of similar size was immobilized in the same manner as a negative control. […] For CdeC D1, the protein was received as aggregated, insoluble balls of protein. The binding” for “The binding”

[5] = biological target: CotEC chitinase (rCotEC, AB45, aa381-712 of CotE) (Clostridium difficile); experiment: SPR; details: tags: His-tagged (Ni-NTA)
Procedure: as §1, §2

B1: CotE D2.1 (ssDNA)
DNA: ACTACTCAATGCTCGACATTTCCGCCCCGACGGCCCTCCTAGTGAGGGGAGAGTAGA
Kd [1]: 0.0341 µM

B2: FAM-CotE H2.1.2 (ssDNA)
DNA: CTTGACCTTTGGAATGGGTGGGAGGGAGGGTATCCACAGGTCAACC
binding result (HIV-1 p24 capsid protein): no binding

B3: CotE H2.1.2 (ssDNA)
DNA: CTTGACCTTTGGAATGGGTGGGAGGGAGGGTATCCACAGGTCAACC
Kd [1]: 0.00752 µM

B4: CotE H2.1.1 (ssDNA)
DNA: CTTGACCTTTGGAATGGGTAGGGAGGGAGGGATACTATCCACAGGTCAACC
Kd [1]: > 0.25 µM

B5: CdeM Em2.1 (ssDNA)
DNA: CTCAATGCCTTCCATTCACCTACCGAGCTAAGCGTTCGACTTAGGTCTGTACT
binding result (CdeM): binds

B6: CdeC D1 (ssDNA)
DNA: CCAGTGTAGACTACTCAATGCCGTGGACTGGTCGGGTTTGGATTCGGCAGATGAATCAGTAGTACTATCCACAGGTCAACC
binding result (CdeC): binds

B7: CotA C1.3 (ssDNA)
DNA: ACCCGTGGGACTGGGTCGGGTCGGG
Kd (CotA-His6 [2]): 0.0782 µM

B8: CotE D2.2 (ssDNA)
DNA: ACTACTCAATGCTCGACATTTCCGCCCCGACGGCCCTCCTAGTGATGGGGAGAGTAGA
Kd [1]: 0.207 µM

B9: CotA C1.2 (ssDNA)
DNA: ACTCAAGGCCGTGGACTGGTCGGGTTTGGAT
Kd (CotA-His6 [3]): 0.0521 µM

B10: CotE H2.2 (ssDNA)
DNA: AATGGGTGGGAGGGATGGGTACTA
Kd [1]: > 0.25 µM

B11: CotA C1.1 (ssDNA)
DNA: ACTCAAGGCCGTGGACTGGTCGGGTTTGGATTCGGCAGATGAATCACT
Kd (CotA-His6 [4]): 0.0184 µM

B12: CdeC D1.2 (ssDNA)
DNA: ACTACTCAATGCCGTGGACTGGTCGGGTTTGGAATCGGCAGATGAATCAGTAGTAAA
binding result (CdeC): binds

B13: CotE H2.1 (ssDNA)
DNA: CTTGACCTTTGGAATGGGTGGGAGGGATGGGTACTATCCACAGGTCAACC
Kd [1]: 0.0175 µM

B14: CotEC Chitinase D11.1 (ssDNA)
DNA: AACTGCCTGGTAAATCGATGACCGCTGCCTCGCCTGAGTAATCATCGTACTATCCACAGGTC
Kd [5]: 0.295 µM

B15: CdeM E2/Em2 (ssDNA)
DNA: CCAGTGTAGACTACTCAATGCCTTCCATTCACCTACCGAGCTAAGCGTTCGACTTAGGTCTGTACTATCCACAGGTCAACC
binding result (CdeM): binds
